The text below walks through data of publication PMC4267786.

The assay concerns the target native apolipoprotein D (apoD) from human plasma (human) (UniProt P05090). In words: ELISA; detergent-free dual-specific ELISA with purified components; capture anti-apoD D544, detection anti-apoB LDL20-biotin; LDL 333 ng/ml (or VLDL 1000 ng/ml, also with detergent) alone or with apoD 100 ng/ml, recombinant apoD 100 ng/ml, HDL2 or HDL3 1000 ng/ml; read as absorbance relative to LDL alone.
Chain of UniProt P05090 (P05090 21-189): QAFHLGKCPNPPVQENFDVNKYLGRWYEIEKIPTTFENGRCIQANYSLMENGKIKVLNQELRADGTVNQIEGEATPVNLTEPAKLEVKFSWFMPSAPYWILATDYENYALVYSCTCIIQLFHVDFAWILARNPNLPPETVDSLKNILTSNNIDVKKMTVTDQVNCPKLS

In the case of “purified low density lipoprotein (LDL) (complex)”, the fold enhancement of LDL binding against LDL alone is 6 fold.
